Test results from patent US20240083945A1 (Bicycle, published 2024).

B1: BCY20266 (peptide)
peptide: ACMQNPCRWVNIPCA
modifications: N-terminal acetyl (Ac); Ci, Cii and Ciii cysteines covalently bound to TATA scaffold
B2: BCY20265 (peptide)
peptide: ACSTDVCKLTGIAIPCA
modifications: N-terminal acetyl (Ac); Ci, Cii and Ciii cysteines covalently bound to TATA scaffold
B3: BCY20263 (peptide)
peptide: ACTTDFCNNRYVVNRCA
modifications: N-terminal acetyl (Ac); Ci, Cii and Ciii cysteines covalently bound to TBMT scaffold
B4: BCY20264 (peptide)
peptide: ACWTDFCNNRYVVNRCA
modifications: N-terminal acetyl (Ac); Ci, Cii and Ciii cysteines covalently bound to TBMT scaffold

What follows are binders tested against T1, COVID-19 nucleocapsid protein (N-protein) (severe acute respiratory syndrome …, UniProt P0DTC9 1-419) (assay: bio-layer interferometry (BLI)).
T1 construct: also called nucleocapsid protein (N-protein) of severe acute respiratory syndrome coronavirus 2 (SARS-CoV-2)
Work on LARDCGTDFCNNRYVVNRCA (Ci, Cii and Ciii cysteines covalently bound to TBMT scaffold) [BCY18989] yielded a Kd of 26.5 nM.
In the case of ACTTDFCNNRYVTQRCA (Ci, Cii and Ciii cysteines covalently bound to TBMT scaffold) [BCY17629], the Kd is reported as 41.7 nM.
In the case of ACWTDFCNNRYVTQRCA (Ci, Cii and Ciii cysteines covalently bound to TBMT scaffold) [BCY17634], the Kd is reported as 64.2 nM.
In the case of ACTTDFCNNRYVVNRCDDYH (Ci, Cii and Ciii cysteines covalently bound to TBMT scaffold) [BCY18972], the Kd is reported as 22.2 nM.
In the case of ACHTPDWSDFCAGRYCA (Ci, Cii and Ciii cysteines covalently bound to TBCU scaffold) [BCY16581], the Kd is reported as 8040 nM.
With ACTKGYCPLTDMFCA (Ci, Cii and Ciii cysteines covalently bound to TBMT scaffold) [BCY17639] the Kd was 1240 nM.
With ACSRGYCPRTNTFCA (Ci, Cii and Ciii cysteines covalently bound to TBMT scaffold) [BCY17637] the Kd was 1050 nM.
For B1, the Kd was 9.7 nM.
Work on ACSVDVCAITGVHIPCA (Ci, Cii and Ciii cysteines covalently bound to TATA scaffold) [BCY19566] yielded a Kd of 3260 nM.
With ACLPLGARCQWGRTCA (Ci, Cii and Ciii cysteines covalently bound to TATA scaffold) [BCY16576] the Kd was 593 nM.
ACLPLGARCQWSRTCA (Ci, Cii and Ciii cysteines covalently bound to TATA scaffold) [BCY17647] showed a Kd of 548 nM.
In the case of NQLPCLTDFCNNRYVVNQCQEQS (Ci, Cii and Ciii cysteines covalently bound to TBMT scaffold) [BCY18994], the Kd is reported as 6890 nM.
Work on ACNTWCMDNDRIYFNCA (Ci, Cii and Ciii cysteines covalently bound to TBMT scaffold) [BCY16574] yielded a Kd of 1030 nM.
With RRAVCTTDFCNNRYVVNRCDDYH (Ci, Cii and Ciii cysteines covalently bound to TBMT scaffold) [BCY18978] the Kd was 40.2 nM.
ACNGDFCNNRYIVNTCA (Ci, Cii and Ciii cysteines covalently bound to TBMT scaffold) [BCY17625] gave a Kd of 27.6 nM.
For MPTSCVTDFCNNRYVVNRCA (Ci, Cii and Ciii cysteines covalently bound to TBMT scaffold) [BCY18984], the Kd was 72.8 nM.
Work on ACTVDVCLLTGLHIPCA (Ci, Cii and Ciii cysteines covalently bound to TATA scaffold) [BCY19454] yielded a Kd of 7110 nM.
In the case of ACTVDVCELTGLHIPCA (Ci, Cii and Ciii cysteines covalently bound to TATA scaffold) [BCY19565], the Kd is reported as 840 nM.
ACDGNFCDNRYVVNRCA (Ci, Cii and Ciii cysteines covalently bound to TBMT scaffold) [BCY17636] showed a Kd of 1730 nM.
ACPVRIEYPICDTSICA (Ci, Cii and Ciii cysteines covalently bound to TBMT scaffold) [BCY16582] showed a Kd of 1790 nM.
For ACTTDFCNNRYVVNRCGSDN (Ci, Cii and Ciii cysteines covalently bound to TBMT scaffold) [BCY18971], the Kd was 27.9 nM.
ACTNRNFCQNRYSVTCA (Ci, Cii and Ciii cysteines covalently bound to TBCU scaffold) [BCY16568] was tested, and the Kd was 8160 nM.
Work on KTEYCETDFCNNRYVVNRCA (Ci, Cii and Ciii cysteines covalently bound to TBMT scaffold) [BCY18988] yielded a Kd of 29.1 nM.
For B2, the Kd was 2.5 nM.
For ACKTYCFMENRYSLSCA (Ci, Cii and Ciii cysteines covalently bound to TBMT scaffold) [BCY16563], the Kd was 1540 nM.
ACTTDFCNNRYVVNLCQNKS (Ci, Cii and Ciii cysteines covalently bound to TBMT scaffold) [BCY18982] showed a Kd of 79.7 nM.
With ACEGDFCDGRYIVNTCA (Ci, Cii and Ciii cysteines covalently bound to TBMT scaffold) [BCY17627] the Kd was 36.9 nM.
ACTVDVCAITGVQIPCA (Ci, Cii and Ciii cysteines covalently bound to TATA scaffold) [BCY19568] gave a Kd of 1870 nM.
For ACDGNFCDNRYVTQRCA (Ci, Cii and Ciii cysteines covalently bound to TBMT scaffold) [BCY17635], the Kd was 40300 nM.
Work on AYTDCTTDFCNNRYVVNRCA (Ci, Cii and Ciii cysteines covalently bound to TBMT scaffold) [BCY18974] yielded a Kd of 20.6 nM.
QYESCTTDFCNNRYVVNRCA (Ci, Cii and Ciii cysteines covalently bound to TBMT scaffold) [BCY18975] gave a Kd of 63.8 nM.
ACDGNFCDNRYIVNTCA (Ci, Cii and Ciii cysteines covalently bound to TBMT scaffold) [BCY17626] showed a Kd of 263 nM.
Work on ACLVDVCEITGVQIRCA (Ci, Cii and Ciii cysteines covalently bound to TATA scaffold) [BCY18171] yielded a Kd of 5610 nM.
ACTSYFCNNRFTLNTCA (Ci, Cii and Ciii cysteines covalently bound to TBMT scaffold) [BCY16566] gave a Kd of 1110 nM.
Work on LEQICVTDFCNNRYVVNRCA (Ci, Cii and Ciii cysteines covalently bound to TBMT scaffold) [BCY18985] yielded a Kd of 28.1 nM.
Work on KSQRCMTDFCNNRYVVNRCA (Ci, Cii and Ciii cysteines covalently bound to TBMT scaffold) [BCY18993] yielded a Kd of 23.8 nM.
For ACSIGYCPVTDTFCA (Ci, Cii and Ciii cysteines covalently bound to TBMT scaffold) [BCY17641], the Kd was 1740 nM.
With ACYVGYCPATDTFCA (Ci, Cii and Ciii cysteines covalently bound to TBMT scaffold) [BCY17638] the Kd was 805 nM.
LSQPCLTDFCNNRYVVNRCA (Ci, Cii and Ciii cysteines covalently bound to TBMT scaffold) [BCY18991] showed a Kd of 10.6 nM.
Binder ACPQTYCFINNRYCA (Ci, Cii and Ciii cysteines covalently bound to TBMT scaffold) [BCY16567] has a Kd of 1010 nM.
EKQYCTTDFCNNRYVVNRCA (Ci, Cii and Ciii cysteines covalently bound to TBMT scaffold) [BCY18977] showed a Kd of 22.3 nM.
Work on ACTTDFCNDRYIVNSCA (Ci, Cii and Ciii cysteines covalently bound to TBMT scaffold) [BCY17630] yielded a Kd of 331 nM.
With ACFRGYCPQTNLFCA (Ci, Cii and Ciii cysteines covalently bound to TBMT scaffold) [BCY16573] the Kd was 728 nM.
Work on HSLICVTDFCNNRYVVNRCA (Ci, Cii and Ciii cysteines covalently bound to TBMT scaffold) [BCY18986] yielded a Kd of 10.6 nM.
QYESCTTDFCNNRYVVNRCGSDN (Ci, Cii and Ciii cysteines covalently bound to TBMT scaffold) [BCY18979] showed a Kd of 108 nM.
With ACTTDFCNNRYVVNRCEALE (Ci, Cii and Ciii cysteines covalently bound to TBMT scaffold) [BCY18970] the Kd was 29.3 nM.
NQLPCLTDFCNNRYVVNRCA (Ci, Cii and Ciii cysteines covalently bound to TBMT scaffold) [BCY18992] showed a Kd of 19.7 nM.
In the case of HSLICVTDFCNNRYVVNRCMHSQ (Ci, Cii and Ciii cysteines covalently bound to TBMT scaffold) [BCY18987], the Kd is reported as 9.7 nM.
Work on ACTTDFCNDRYITELCA (Ci, Cii and Ciii cysteines covalently bound to TBMT scaffold) [BCY17632] yielded a Kd of 2600 nM.
For ACTTDFCNNRYVVNQCSYPR (Ci, Cii and Ciii cysteines covalently bound to TBMT scaffold) [BCY18973], the Kd was 225 nM.
Work on ACDKWQLGCRITYKCA (Ci, Cii and Ciii cysteines covalently bound to TATA scaffold) [BCY16575] yielded a Kd of 1020 nM.
ACHVDVCLITGVNIPCA (Ci, Cii and Ciii cysteines covalently bound to TATA scaffold) [BCY19567] showed a Kd of 2250 nM.
With ACKRGYCPVTDTFCA (Ci, Cii and Ciii cysteines covalently bound to TBMT scaffold) [BCY17640] the Kd was 43000 nM.
B3 gave a Kd of 11.8 nM.
Binder ACTTDFCNSRYIVNTCA (Ci, Cii and Ciii cysteines covalently bound to TBMT scaffold) [BCY16570] has a Kd of 442 nM.
In the case of ACSEGWCFRENRYQVCA (Ci, Cii and Ciii cysteines covalently bound to TATA scaffold) [BCY16565], the Kd is reported as 1340 nM.
In the case of RRAVCTTDFCNNRYVVNRCA (Ci, Cii and Ciii cysteines covalently bound to TBMT scaffold) [BCY18976], the Kd is reported as 19.7 nM.
In the case of ACNAWFCDGRFYMCA (Ci, Cii and Ciii cysteines covalently bound to TBCU scaffold) [BCY16569], the Kd is reported as 4270 nM.
ACSVGYCPLTNTFCA (Ci, Cii and Ciii cysteines covalently bound to TBMT scaffold) [BCY16572] showed a Kd of 1660 nM.
With ACTTDFCNDRYIINPCA (Ci, Cii and Ciii cysteines covalently bound to TBMT scaffold) [BCY17631] the Kd was 321 nM.
With ACIVGYCPATDDFCA (Ci, Cii and Ciii cysteines covalently bound to TBMT scaffold) [BCY16571] the Kd was 797 nM.
Work on ACVHDVCALTGIHIPCA (Ci, Cii and Ciii cysteines covalently bound to TATA scaffold) [BCY19453] yielded a Kd of 4240 nM.
Work on ACTHDVCVLTGISIPCA (Ci, Cii and Ciii cysteines covalently bound to TATA scaffold) [BCY19564] yielded a Kd of 2000 nM.
With ACQVDVCALTGIQIPCA (Ci, Cii and Ciii cysteines covalently bound to TATA scaffold) [BCY19455] the Kd was 14900 nM.
In the case of ACMHDVCVLTGVNIPCA (Ci, Cii and Ciii cysteines covalently bound to TATA scaffold) [BCY19563], the Kd is reported as 1510 nM.
With ACSRANNYCDWWKCA (Ci, Cii and Ciii cysteines covalently bound to TBCU scaffold) [BCY16578] the Kd was 22300 nM.
Work on ACTTDFCNNRYVVNQCQEQS (Ci, Cii and Ciii cysteines covalently bound to TBMT scaffold) [BCY18983] yielded a Kd of 2450 nM.
Binder ACSTDVCKLTGIAIPCA (Ci, Cii and Ciii cysteines covalently bound to TATA scaffold) [BCY18169] has a Kd of 1600 nM.
In the case of ACQYTFCENRYKICA (Ci, Cii and Ciii cysteines covalently bound to TATA scaffold) [BCY16564], the Kd is reported as 2080 nM.
ACTTDFCNNRYVVNRCA (Ci, Cii and Ciii cysteines covalently bound to TBMT scaffold) [BCY17628] gave a Kd of 16.6 nM.
For B4, the Kd was 10.1 nM.
With ACWTDFCNNRYIVNTCA (Ci, Cii and Ciii cysteines covalently bound to TBMT scaffold) [BCY17624] the Kd was 56.3 nM.
